Reference: US20080248043A1

Key:
[1] = molecular target: antigen of Table 4 (native or denatured; not named); test: native conditions; 10 µg/ml
[2] = molecular target: antigen of Table 4 (native or denatured; not named); test: denatured conditions; 10 µg/ml
[3] = molecular target: antigen of Table 4 (native or denatured; not named); test: native conditions; dilution 1:5

Cont gave an OD (read-out not given) [1] of 0.738, an OD (read-out not given) [2] of 0.146 and an OD (read-out not given) [3] of 0.052.
